Measured values taken from patent US11510965B2, “Vesicles comprising epidermal growth factor and compositions thereof” (Centro de Ingeniería Genética y Biotecnología, priority 2012, dated 2022).

Tested on: acute lung injury induced by LPS-zymosan
Test: Lethal model of acute lung injury (ALI) / ARDS in rats (LPS-zymosan)
Type: in vivo, Sprague Dawley rats
Protocol: Male Sprague Dawley rats with body weight between 250 and 280 grams were used. Lung injury was induced under general anesthesia (ketamine/xylazine) by intratracheal instillation of a combination of lipopolysaccharide (LPS)-zymosan. Immediately afterwards, the animals were randomly assigned to three experimental groups of 12 animals each.
The animals were allowed to evolve without any treatment until the onset of the first symptoms.
Therefore, treatments were begun approximately 8 hours after the toxins were instilled. The experiment was aimed at evaluating the effect of treatment with both EGF formulations solely on the acute phase of ARDS. The treatments were performed by orofacial mask adapted from a volatile anesthesia machine. Treatments were performed twice daily. The animals were also treated once a day with hydrocortisone acetate (10 mg/kg) as coadjuvant treatment.
After 72 hours of treatment onset, the study was stopped. Surviving animals were anesthetized and subjected to deep bronchoalveolar lavage in 5 ml of sterile saline for cytological and biochemical study, as well as arterial blood sampling for determination of blood gas parameters. Then the lungs were insufflated with 10 ml of 10% neutral formalin and processed for histology.

[1] = arterial blood, survivors at 72 hours
[2] = bronchoalveolar lavage, survivors at 72 hours

B1: EGF in physiological saline: spray of EGF (Epidermal Growth Factor) in physiological saline at 25 μg/ml/kg (protein, UniProt P01133 23-1207, looked up)
Pro-epidermal growth factor: PQHWSCPEGTLAGNGNSTCVGPAPFLIFSHGNSIFRIDTEGTNYEQLVVDAGVSVIMDFHYNEKRIYWVDLERQLLQRVFLNGSRQERVCNIEKNVSGMAINWINEEVIWSNQQEGIITVTDMKGNNSHILLSALKYPANVAVDPVERFIFWSSEVAGSLYRADLDGVGVKALLETSEKITAVSLDVLDKRLFWIQYNREGSNSLICSCDYDGGSVHISKHPTQHNLFAMSLFGDRIFYSTWKMKTIWIANKHTGKDMVRINLHSSFVPLGELKVVHPLAQPKAEDDTWEPEQKLCKLRKGNCSSTVCGQDLQSHLCMCAEGYALSRDRKYCEDVNECAFWNHGCTLGCKNTPGSYYCTCPVGFVLLPDGKRCHQLVSCPRNVSECSHDCVLTSEGPLCFCPEGSVLERDGKTCSGCSSPDNGGCSQLCVPLSPVSWECDCFPGYDLQLDEKSCAASGPQPFLLFANSQDIRHMHFDGTDYGTLLSQQMGMVYALDHDPVENKIYFAHTALKWIERANMDGSQRERLIEEGVDVPEGLAVDWIGRRFYWTDRGKSLIGRSDLNGKRSKIITKENISQPRGIAVHPMAKRLFWTDTGINPRIESSSLQGLGRLVIASSDLIWPSGITIDFLTDKLYWCDAKQSVIEMANLDGSKRRRLTQNDVGHPFAVAVFEDYVWFSDWAMPSVMRVNKRTGKDRVRLQGSMLKPSSLVVVHPLAKPGADPCLYQNGGCEHICKKRLGTAWCSCREGFMKASDGKTCLALDGHQLLAGGEVDLKNQVTPLDILSKTRVSEDNITESQHMLVAEIMVSDQDDCAPVGCSMYARCISEGEDATCQCLKGFAGDGKLCSDIDECEMGVPVCPPASSKCINTEGGYVCRCSEGYQGDGIHCLDIDECQLGEHSCGENASCTNTEGGYTCMCAGRLSEPGLICPDSTPPPHLREDDHHYSVRNSDSECPLSHDGYCLHDGVCMYIEALDKYACNCVVGYIGERCQYRDLKWWELRHAGHGQQQKVIVVAVCVVVLVMLLLLSLWGAHYYRTQKLLSKNPKNPYEESSRDVRSRRPADTEDGMSSCPQPWFVVIKEHQDLKNGGQPVAGEDGQAADGSMQPTSWRQEPQLCGMGTEQGCWIPVSSDKGSCPQVMERSFHMPSYGTQTLEGGVEKPHSLLSANPLWQQRALDPPHQMELTQ
modifications: Pro-epidermal growth factor
notes: spray of EGF (Epidermal Growth Factor) in physiological saline at 25 μg/ml/kg
Death total (12 animals per group, 72 hours): 5 | Death total (percent) (12 animals per group, 72 hours): (41.6%) | Mortality (deaths) 48 hours (12 animals per group, EGF 25 μg/ml, orofacial mask twice daily): 5 | Arterial pH [1]: 7.12 ± 0.1 | Arterial saturation [1]: 76 ± 8.3 | Inflammatory cells per ml [2]: 2.2 × 10^3 | Red blood cells per ml [2]: 5.0 × 10^2 | Total phospholipids per g of lung tissue [2]: 0.000241 g
